The record followed here is patent US20210095265A1 (WISCONSIN ALUMNI RESEARCH FOUNDATION, published 2021).

Series [1] concerns the molecule itself. Put plainly: X-ray crystal structures (pdb 5uuo, 5uun); two copies of the protein per asymmetric unit. The text has this:
Diffraction data were obtained at the GM/CA beam-line at Argonne National Laboratory with an Eiger 16M detector (Casanas et al. 2016). Data were collected on the ammonium acetate and ammonium sulfate crystal forms using 1.033 Å (for 1.45 Å resolution) or 0.7749 Å (for 1.25 Å resolution) X-rays, respectively. Diffraction data were reduced using XDS (Kabsch 2010). Both crystals belonged to space group P2₁2₁2₁ with a predicted solvent content of 60%. The structure was solved by molecular replacement with Phaser (McCoy et al. 2007) in the Phenix suite (Adams et al. 2010), using a search model based on PDB ID 3C8E:A (ecYghU (Stourman et al. 2011)) modified with phenix.sculptor (Bunkóczi et al. 2011), based on primary sequence alignment. […] Phenix.refine (Afonine et al. 2012) and COOT (Emsley et al. 2004) were alternatively used to refine the structure and fit the model to electron density maps.

Series [2] deals with T1, Saro_2873 N14A (subunit of BaeA variant 3:N14A) (Novosphingobium aromaticivorans).
T1 construct: This subunit is untagged; the tag is on Saro_2872
T1 chain: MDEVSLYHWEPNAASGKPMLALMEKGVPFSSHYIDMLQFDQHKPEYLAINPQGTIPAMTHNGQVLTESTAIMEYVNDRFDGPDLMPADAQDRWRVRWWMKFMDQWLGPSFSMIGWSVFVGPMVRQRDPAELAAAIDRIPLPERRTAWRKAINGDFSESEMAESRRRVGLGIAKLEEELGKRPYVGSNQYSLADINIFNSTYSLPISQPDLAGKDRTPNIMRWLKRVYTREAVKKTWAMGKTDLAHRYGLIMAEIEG
Nature of the series: gel permeation chromatography.

Series [3] has as its target T2, Saro_2873 S15A (subunit of BaeA variants 3:S15A and 2:S14A/3:S15A) (Novosphingobium aromaticivorans).
T2 chain: T1 chain with A14N, S15A
Nature of the series: gel permeation chromatography.

Series [4] has as its target T3, Saro_2873 polypeptide made by cell-free synthesis in its native form.
T3 chain: T1 chain with A14N

Series [5] addresses T4, Saro_2873 polypeptide from Novosphingobium aromaticivorans (subunit of BaeA), co-expressed with Saro_2872 in … (Novosphingobium aromaticivorans).
T4 construct: Co-expressed with Saro_2872; also called Saro_2873 subunit; second polypeptide of BaeA
T4 chain: T1 chain with A14N
Nature of the series: gel permeation chromatography.

Numbering of substitutions follows the chain as printed. Numbers in names are those of the source.

B1: recombinant NaGSTNu (Nu-class glutathione-S-transferase of Novosphingobium aromaticivorans DSM 12444, Saro_2595), one subunit (enzyme)
chain: SAIAGMSSEYVPPKVWKWDKANGGAFASVNRPVAGPTSERELPVGKHPFQVYSLGTPNGQKATIMLEELLQLGFSEAEYDAWLIKIFEGDQFTSGFVDINPNSKIPAMVDRSGPEPFRVFESGAILMHLAEKFGVFLPTSGPARAECLSWLFWQVGSAPFIGGGFGHFYNYAPIKIEYAIDRYAMETKRLFDVANRRLAESRYLAGDEYTIADLATYTWFGNIYRGEAYGEAATFLSMHEYEHVGRWVGEIDARPGVLRGRLVNSSKGLAERHDASDFDALPPESLQAIVKGF
notes: also called Saro_2595 product; pdb 5uuo
On to B1, for which, in series [1], the binding result is on record as “binds”.

B2: Saro_2872 polypeptide from Novosphingobium aromaticivorans (subunit of BaeA), co-expressed with Saro_2873 in E. coli (enzyme)
chain: MSALLYHGEPNGASLTVLAALAETGLDIECRRIDLLAGERHSLPGIVDPVALDLSIEGEGPVLVIDGEAMTESVFLAQYLDEAAGGVGLQPTDAYARWEMMMWCRQITERLSPAAALLGNLATSQSAIAAIPAEDFAILAARIVSDDLRERWQALNDDAVNAAQVADSETKVAAAVDRCEKQLGDGREWLMGTFSIADLVTYSWLAGMEPLRPAAFADAPLVKAWLARTAARPCVQAALARATISEPLRAWAPGPEINRWG
notes: Co-expressed with Saro_2873 from one pVP302K vector; In the H2872 construct Saro_2872 lacks its native start codon; also called Saro_2872 subunit; first polypeptide of BaeA
For B2, the binding result in series [2] and in series [3] was “binds” throughout. The “conversion of racemic MPHPV into GS-HPV and guaiacol (HPLC)” value in series [4] is “half of the MPHPV was converted into GS-HPV and guaiacol”.

B3: Saro_2872 S14A (subunit of BaeA variants 2:S14A and 2:S14A/3:S15A) (enzyme)
chain: B2 chain with S14A
notes: The N-terminal His8-tag and Tev site are on this subunit, and its native start codon is missing; also called H2872(S14A)
On to B3, for which the binding result in series [5] and in series [3] was “binds” throughout.
